Measurements published in US20120135923A1, “Use of Melanocortins to Treat Dyslipidemia” (IPSEN PHARMA, S.A.S., priority 2009, published 2012).
Bridge positions count the residues as written; N and C are the ends. Square brackets hold non-standard residues; d marks the D form. Ends that are not written are not given here. Bip = N[C@@H](Cc1ccc(-c2ccccc2)cc1)C(=O)O; 1Nal = N[C@@H](Cc1cccc2ccccc12)C(=O)O; 2Nal = N[C@@H](Cc1ccc2ccccc2c1)C(=O)O; d2Nal = N[C@H](Cc1ccc2ccccc2c1)C(=O)O; hArg = N=C(N)NCCCC[C@H](N)C(=O)O; Pen = CC(C)(S)[C@H](N)C(=O)O; Nle = CCCC[C@H](N)C(=O)O; Ahx = NCCCCCC(=O)O; GABA = NCCCC(=O)O; βAla = NCCC(=O)O

B1: Ac-c(Cys-Glu-His-D-2-Nal-Arg-1-Nal-Ala-Cys)-Pro-Pro-Lys-Asp-NH2 (peptide)
peptide: Ac-CEH[d2Nal]R[1Nal]ACPPKD-NH2
modifications: disulfide 1-8
SMILES: CC(=O)N[C@H]1CSSC[C@@H](C(=O)N2CCC[C@H]2C(=O)N2CCC[C@H]2C(=O)N[C@@H](CCCCN)C(=O)N[C@@H](CC(=O)O)C(N)=O)NC(=O)[C@H](C)NC(=O)[C@H](Cc2cccc3ccccc23)NC(=O)[C@H](CCCNC(=N)N)NC(=O)[C@@H](Cc2ccc3ccccc3c2)NC(=O)[C@H](Cc2c[nH]cn2)NC(=O)[C@H](CCC(=O)O)NC1=O
B2: D-Phe-c(Cys-His-D-Phe-Arg-Bip-β-Ala-D-Cys)-Thr-NH2 (peptide)
peptide: [dF]CH[dF]R[Bip][βAla][dC]T-NH2
modifications: disulfide 2-8; N-terminus assumed
SMILES: C[C@@H](O)[C@H](NC(=O)[C@H]1CSSC[C@H](NC(=O)[C@H](N)Cc2ccccc2)C(=O)N[C@@H](Cc2c[nH]cn2)C(=O)N[C@H](Cc2ccccc2)C(=O)N[C@@H](CCCNC(=N)N)C(=O)N[C@@H](Cc2ccc(-c3ccccc3)cc2)C(=O)NCCC(=O)N1)C(N)=O
B3: Ac-Nle-c(Cys-His-D-2-Nal-Arg-Trp-Gaba-Cys)-NH2 (peptide)
peptide: Ac-[Nle]CH[d2Nal]RW[GABA]C-NH2
modifications: disulfide 2-8
B4: D-Phe-c(Cys-His-D-Phe-Arg-Trp-β-Ala-D-Cys)-Thr-NH2 (peptide)
peptide: [dF]CH[dF]RW[βAla][dC]T-NH2
modifications: disulfide 2-8; N-terminus assumed
SMILES: C[C@@H](O)[C@H](NC(=O)[C@H]1CSSC[C@H](NC(=O)[C@H](N)Cc2ccccc2)C(=O)N[C@@H](Cc2c[nH]cn2)C(=O)N[C@H](Cc2ccccc2)C(=O)N[C@@H](CCCNC(=N)N)C(=O)N[C@@H](Cc2c[nH]c3ccccc23)C(=O)NCCC(=O)N1)C(N)=O
B5: Ac-c(Cys-Glu-His-D-2-Nal-Arg-2-Nal-Ala-Cys)-Pro-Pro-Lys-Asp-NH2 (peptide)
peptide: Ac-CEH[d2Nal]R[2Nal]ACPPKD-NH2
modifications: disulfide 1-8
SMILES: CC(=O)N[C@H]1CSSC[C@@H](C(=O)N2CCC[C@H]2C(=O)N2CCC[C@H]2C(=O)N[C@@H](CCCCN)C(=O)N[C@@H](CC(=O)O)C(N)=O)NC(=O)[C@H](C)NC(=O)[C@H](Cc2ccc3ccccc3c2)NC(=O)[C@H](CCCNC(=N)N)NC(=O)[C@@H](Cc2ccc3ccccc3c2)NC(=O)[C@H](Cc2c[nH]cn2)NC(=O)[C@H](CCC(=O)O)NC1=O
B6: D-Phe-c(Cys-His-D-Phe-hArg-Bip-β-Ala-D-Cys)-Thr-NH2 (peptide)
peptide: [dF]CH[dF][hArg][Bip][βAla][dC]T-NH2
modifications: disulfide 2-8; N-terminus assumed
SMILES: C[C@@H](O)[C@H](NC(=O)[C@H]1CSSC[C@H](NC(=O)[C@H](N)Cc2ccccc2)C(=O)N[C@@H](Cc2c[nH]cn2)C(=O)N[C@H](Cc2ccccc2)C(=O)N[C@@H](CCCCNC(=N)N)C(=O)N[C@@H](Cc2ccc(-c3ccccc3)cc2)C(=O)NCCC(=O)N1)C(N)=O
B7: Ac-Nle-c(Pen-His-D-Phe-Arg-Trp-Gaba-Cys)-NH2 (peptide)
peptide: Ac-[Nle][Pen]H[dF]RW[GABA]C-NH2
modifications: disulfide 2-8
SMILES: CCCC[C@H](NC(C)=O)C(=O)N[C@@H]1C(=O)N[C@@H](Cc2c[nH]cn2)C(=O)N[C@H](Cc2ccccc2)C(=O)N[C@@H](CCCNC(=N)N)C(=O)N[C@@H](Cc2c[nH]c3ccccc23)C(=O)NCCCC(=O)N[C@H](C(N)=O)CSSC1(C)C
B8: D-Phe-c(Cys-His-D-(Et)Tyr-Arg-Trp-β-Ala-D-Cys)-Thr-NH2 (peptide)
peptide: [dF]CH[d(Et)Tyr]RW[βAla][dC]T-NH2
modifications: disulfide 2-8
B9: Ac-Nle-c(Cys-D-Ala-His-D-2-Nal-Arg-2-Nal-Cys)-NH2 (peptide)
peptide: Ac-[Nle]C[dA]H[d2Nal]R[2Nal]C-NH2
modifications: disulfide 2-8
SMILES: CCCC[C@H](NC(C)=O)C(=O)N[C@H]1CSSC[C@@H](C(N)=O)NC(=O)[C@H](Cc2ccc3ccccc3c2)NC(=O)[C@H](CCCNC(=N)N)NC(=O)[C@@H](Cc2ccc3ccccc3c2)NC(=O)[C@H](Cc2c[nH]cn2)NC(=O)[C@@H](C)NC1=O
B10: Ac-Nle-c(Cys-D-Ala-His-D-2-Nal-Arg-1-Nal-Cys)-NH2 (peptide)
peptide: Ac-[Nle]C[dA]H[d2Nal]R[1Nal]C-NH2
modifications: disulfide 2-8
SMILES: CCCC[C@H](NC(C)=O)C(=O)N[C@H]1CSSC[C@@H](C(N)=O)NC(=O)[C@H](Cc2cccc3ccccc23)NC(=O)[C@H](CCCNC(=N)N)NC(=O)[C@@H](Cc2ccc3ccccc3c2)NC(=O)[C@H](Cc2c[nH]cn2)NC(=O)[C@@H](C)NC1=O
B11: Ac-Nle-c(Cys-His-D-2-Nal-Arg-Trp-Ahx-Cys)-NH2 (peptide)
peptide: Ac-[Nle]CH[d2Nal]RW[Ahx]C-NH2
modifications: disulfide 2-8
B12: Ac-Nle-c(Cys-D-Ala-His-D-Phe-Arg-Trp-D-Ala-Cys)-NH2 (peptide)
peptide: Ac-[Nle]C[dA]H[dF]RW[dA]C-NH2
modifications: disulfide 2-9
SMILES: CCCC[C@H](NC(C)=O)C(=O)N[C@H]1CSSC[C@@H](C(N)=O)NC(=O)[C@@H](C)NC(=O)[C@H](Cc2c[nH]c3ccccc23)NC(=O)[C@H](CCCNC(=N)N)NC(=O)[C@@H](Cc2ccccc2)NC(=O)[C@H](Cc2c[nH]cn2)NC(=O)[C@@H](C)NC1=O
B13: D-Phe-c(Cys-His-D-(Et)Tyr-hArg-Bip-β-Ala-D-Cys)-Thr-NH2 (peptide)
peptide: [dF]CH[d(Et)Tyr][hArg][Bip][βAla][dC]T-NH2
modifications: disulfide 2-8
B14: D-Phe-c(Cys-His-D-Phe-Arg-Trp-Gaba-D-Cys)-Thr-NH2 (peptide)
peptide: [dF]CH[dF]RW[GABA][dC]T-NH2
modifications: disulfide 2-8; N-terminus assumed
SMILES: C[C@@H](O)[C@H](NC(=O)[C@H]1CSSC[C@H](NC(=O)[C@H](N)Cc2ccccc2)C(=O)N[C@@H](Cc2c[nH]cn2)C(=O)N[C@H](Cc2ccccc2)C(=O)N[C@@H](CCCNC(=N)N)C(=O)N[C@@H](Cc2c[nH]c3ccccc23)C(=O)NCCCC(=O)N1)C(N)=O

What was measured:
[1] = biological target: human melanocortin receptor subtype 1 (hMC1-R) (human), Q01726; experiment: [125I]-NDP-α-MSH competition, membranes
[2] = biological target: human melanocortin receptor subtype 3 (hMC3-R) (human), P41968; experiment: [125I]-NDP-α-MSH competition, membranes
[3] = biological target: human melanocortin receptor subtype 4 (hMC4-R) (human), P32245; experiment: [125I]-NDP-α-MSH competition, membranes
[4] = biological target: human melanocortin receptor subtype 5 (hMC5-R) (human), P33032; experiment: [125I]-NDP-α-MSH competition, membranes
hMC1-R (human) [5] = biological target: hMC1-R (human) (UniProt Q01726); experiment: ratio Ki hMC1-R / Ki hMC4-R, same assay
hMC1-R (human) [6] = biological target: hMC1-R (human) (UniProt Q01726); experiment: competition with [125I]-NDP-α-MSH, CHO-K1 membranes
hMC3-R (human) [7] = biological target: hMC3-R (human) (UniProt P41968); experiment: as above
hMC4-R (human) [8] = biological target: hMC4-R (human) (UniProt P32245); experiment: as above
hMC5-R (human) [9] = biological target: hMC5-R (human) (UniProt P33032); experiment: as above
hMC1-R (human) [10] = biological target: hMC1-R (human) (UniProt Q01726); experiment: cell-based or functional assay
hMC3-R (human) [11] = biological target: hMC3-R (human) (UniProt P41968); experiment: cell-based or functional assay
hMC4-R (human) [12] = biological target: hMC4-R (human) (UniProt P32245); experiment: cell-based or functional assay
hMC5-R (human) [13] = biological target: hMC5-R (human) (UniProt P33032); experiment: cell-based or functional assay

hMC5-R (human), sequence (P33032 whole entry): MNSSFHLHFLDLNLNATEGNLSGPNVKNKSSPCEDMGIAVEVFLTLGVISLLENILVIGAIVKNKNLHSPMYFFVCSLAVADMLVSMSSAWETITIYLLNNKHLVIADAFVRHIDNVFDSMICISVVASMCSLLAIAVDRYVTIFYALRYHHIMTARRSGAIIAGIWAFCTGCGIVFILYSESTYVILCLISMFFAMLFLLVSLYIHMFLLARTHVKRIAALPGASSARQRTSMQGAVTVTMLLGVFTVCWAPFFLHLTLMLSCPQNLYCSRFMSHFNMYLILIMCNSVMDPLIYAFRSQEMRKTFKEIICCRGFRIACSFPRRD
hMC3-R (human), sequence (P41968 whole entry): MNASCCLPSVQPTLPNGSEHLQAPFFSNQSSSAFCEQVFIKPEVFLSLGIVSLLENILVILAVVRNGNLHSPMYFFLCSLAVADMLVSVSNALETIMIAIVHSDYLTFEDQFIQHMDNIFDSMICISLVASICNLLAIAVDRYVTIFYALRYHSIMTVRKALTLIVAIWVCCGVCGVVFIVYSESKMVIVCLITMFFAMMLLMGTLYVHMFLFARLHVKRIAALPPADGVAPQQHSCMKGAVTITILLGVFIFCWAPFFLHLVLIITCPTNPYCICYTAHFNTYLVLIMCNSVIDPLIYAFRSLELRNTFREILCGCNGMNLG
hMC4-R (human), sequence (P32245 whole entry): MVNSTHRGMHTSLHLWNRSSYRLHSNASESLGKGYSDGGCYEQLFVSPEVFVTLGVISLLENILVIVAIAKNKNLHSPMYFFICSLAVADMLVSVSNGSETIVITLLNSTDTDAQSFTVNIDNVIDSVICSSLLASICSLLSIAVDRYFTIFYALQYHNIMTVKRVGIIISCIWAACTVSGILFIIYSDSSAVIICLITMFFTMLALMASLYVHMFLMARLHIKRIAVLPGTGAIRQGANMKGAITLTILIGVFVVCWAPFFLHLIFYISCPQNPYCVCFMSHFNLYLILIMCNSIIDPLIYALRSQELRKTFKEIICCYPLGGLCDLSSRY
hMC1-R (human), sequence (Q01726 whole entry): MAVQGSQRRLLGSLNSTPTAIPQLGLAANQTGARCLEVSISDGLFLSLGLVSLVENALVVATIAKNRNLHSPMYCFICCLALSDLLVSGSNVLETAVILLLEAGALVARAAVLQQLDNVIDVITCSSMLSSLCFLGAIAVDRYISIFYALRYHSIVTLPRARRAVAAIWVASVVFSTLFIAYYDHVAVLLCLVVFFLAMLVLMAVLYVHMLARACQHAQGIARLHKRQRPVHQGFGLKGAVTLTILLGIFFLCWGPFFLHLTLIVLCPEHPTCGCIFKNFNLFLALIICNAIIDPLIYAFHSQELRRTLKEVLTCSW
human melanocortin receptor subtype 5 (hMC5-R) (human), P33032, sequence (P33032 whole entry): as the sequence (P33032 whole entry) above
human melanocortin receptor subtype 3 (hMC3-R) (human), P41968, sequence (P41968 whole entry): as the sequence (P41968 whole entry) above
human melanocortin receptor subtype 4 (hMC4-R) (human), P32245, sequence (P32245 whole entry): as the sequence (P32245 whole entry) above
human melanocortin receptor subtype 1 (hMC1-R) (human), Q01726, sequence (Q01726 whole entry): as the sequence (Q01726 whole entry) above

Binder	Ki [1] [nM]	Ki [2] [nM]	Ki [3] [nM]	Ki [4] [nM]	Ki hMC1-R/MC4-R (hMC1-R (human) [5])	Ki (hMC1-R (human) [6]) [nM]	Ki (hMC3-R (human) [7]) [nM]	Ki (hMC4-R (human) [8]) [nM]	Ki (hMC5-R (human) [9]) [nM]	cAMP EC50 (hMC1-R (human) [10]) [nM]	cAMP Kb (hMC3-R (human) [11]) [nM]	cAMP Kb (hMC4-R (human) [12]) [nM]	cAMP EC50 (hMC5-R (human) [13]) [nM]
B1	124	17.8	1.11	348									
B2					0.01	5.8	3370	583	1130				
B3					1.05	0.393	1.86	0.375	1.11	0.231	18.4	0.782	0.153
B4					0.08	0.207	43.2	2.58	344				
B5	87.8	9.08	1.2	359									
B6					0.01	1.68	1260	172	1220				
B7					0.09	0.537	86.1	5.89	2.56				
B8					0	0.05	9.3	1.1	2.9				
B9					12.8	32.5	5.85	2.53	94.6				
B10					37.1	114	63.9	3.07	1660	383	61.5	53.6	2840
B11					0.33	0.333	2.91	0.998	0.366	0.581	10.8	0.967	0.126
B12					0.08	3.93	876	48	4940				
B13					0	0.128	85.6	36.9	38				
B14					0.09	0.42	106	4.75	1260				
